Source: article PMC11919701

Legend:
[1] = biological target: CtMrs2 106-539 in MSP1D1/POPC nanodiscs, open-state sample prepared with EDTA (Chaetomium thermophilum); assay: cryo-EM structure; open state: MSP1D1/POPC nanodiscs, 50 mM HEPES pH 7.5, 100 mM NaCl, 2 mM EDTA, 1 mM fluorinated Fos-choline-8; C1 and C5 maps
[2] = biological target: CtMrs2 106-539 lacking GFP (TEV-cleaved), in MSP1D1/POPC nanodiscs, closed-state sample with Mg2+ (Chaetomium thermophilum); assay: cryo-EM structure; closed state: MSP1D1/POPC nanodiscs, 50 mM HEPES-Na pH 7.5, 100 mM NaCl, 2 mM MgCl2 plus additional 10 mM MgCl2; C1 and C5 maps
[3] = biological target: GFP-fused CtMrs2 106-539 E374A;E378A (Chaetomium thermophilum); assay: SEC; purified GFP-fused CtMrs2 forms used for the limited proteolysis assay; final SEC buffer as buffer A but pH 8.0, DDM
[4] = biological target: GFP-fused CtMrs2 106-539 E374R (Chaetomium thermophilum); assay: as above
[5] = biological target: GFP-fused CtMrs2 106-539 S328A;T329A (Chaetomium thermophilum); assay: as above
[6] = biological target: GFP-fused CtMrs2 106-539 S396A;S397A (Chaetomium thermophilum); assay: as above
[7] = biological target: GFP-fused CtMrs2 (His10-GFP-G4S-TEV-CtMrs2 106-539), wild type (Chaetomium thermophilum); assay: native gel or EMSA; Coomassie-stained blue native PAGE of purified detergent-solubilised GFP-fused CtMrs2
[8] = biological target: GFP-fused CtMrs2 (His10-GFP-G4S-TEV-CtMrs2 106-539), wild type (Chaetomium thermophilum); assay: SEC; purified GFP-fused CtMrs2 forms used for the limited proteolysis assay; final SEC buffer as buffer A but pH 8.0, DDM
[9] = biological target: GFP-fused CtMrs2 (His10-GFP-G4S-TEV-CtMrs2 106-539), wild type (Chaetomium thermophilum); assay: SEC; detergent-solubilised GFP-fused CtMrs2 on Superose 6; buffer A (50 mM HEPES-NaOH pH 7.5, 150 mM NaCl, 10% glycerol) with 0.05% DDM and 2 mM MgCl2

## CtMrs2 106-539 in MSP1D1/POPC nanodiscs, open-state sample prepared with EDTA (natural protein)
[1]
  stoichiometry N: 5

## CtMrs2 106-539 lacking GFP (TEV-cleaved), in MSP1D1/POPC nanodiscs, closed-state sample with Mg2+ (natural protein)
[2]
  stoichiometry N: 5

## GFP-fused CtMrs2 106-539 E374A;E378A (natural protein)
[3]
  stoichiometry N: 5

## GFP-fused CtMrs2 106-539 E374R (natural protein)
[4]
  stoichiometry N: 5

## GFP-fused CtMrs2 106-539 S328A;T329A (natural protein)
[5]
  stoichiometry N: 5

## GFP-fused CtMrs2 106-539 S396A;S397A (natural protein)
[6]
  stoichiometry N: 5

## GFP-fused CtMrs2 (His10-GFP-G4S-TEV-CtMrs2 106-539), wild type (natural protein)
[7]
  stoichiometry N: 5
[8]
  stoichiometry N: 5
[9]
  stoichiometry N: 5
